From the supplement of paper PMC9170038

System: MS2 coat protein
Assay: apparent KD of MS2 coat protein; designed switch direction (-1 OFF switch, 1 ON switch): -1; higher = weaker reporter binding
Procedure, shortened: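 Stalled E. coli RNA polymerase transcribed designed RNA switches on Illumina chips, which were then titrated with SNAP-549-labelled MS2 coat protein, doubling from 0.7 or 1.5 nM to 3 µM. Steps lasted from 0.8–1.5 h at the lowest concentration to 10–20 min at the highest. The apparent KD is each design's median over clusters of curve-fitted normalised fluorescence.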

[1] = Eterna round: R95, input ligand: FMN 200 uM
[2] = Eterna round: R95, input ligand: microRNA oligo, concentration not stated
[3] = Eterna round: R95, input ligand: none
[4] = input ligand: microRNA oligo, concentration not stated

Sequence	apparent KD of MS2 coat protein (input ligand: FMN 200 uM) [nM]	apparent KD of MS2 coat protein (input ligand: none) [nM]	apparent KD of MS2 coat protein [4] [nM]	other results
GAUUGACAUGAGGAUCACCCAUGUGAGGAUAUCGGCUGGACCGUGUUGGCUUCGGUUUCGAGAAGGCGCAUAGG [Exclusion 1 V45] (puzzle: Exclusion 1)				apparent KD of MS2 coat protein [1]: 52.9 nM; apparent KD of MS2 coat protein [2]: 90.1 nM; apparent KD of MS2 coat protein [3]: 102 nM
GCUGGUCAAGGAUAUACAUGAGGAUCACCCAUGUAGAUCAACCAGCGAUAGCUGGAAUGUAGAAGGUGACCAGC [E3/5-C1] (Eterna round: R97, puzzle: Exclusion 3)	48.4	15.5		
UGCAGACGAGGAUAUAGAUUUGAUAACAUGAGGAUCACCCAUGUGAUCGAUAGAUCAGAUUUAGAAGGUGUCUGCA [E5/8-B2] (Eterna round: R97, puzzle: Exclusion 5)	579	431		
AAUUAACAUGUAGGAUAUCUGCACGUGUAGUGCAGAGAAGGACAUGAGGAUCACCCAUGUAUAGCGACUUCGGUCGCAAUAAUU [ENG1/2-B3] (Eterna round: R96, puzzle: Exclusion NG 1)	313	140	119	
UAUUUGCAAGGAUAUGAUUUAAGUAACAUGAGGAUCACCCAUGUUUAUCCGUUGUUAUGUUCAGAAGGUGCGUGAU [JR_E5_Sub019] (puzzle: Exclusion 5)				apparent KD of MS2 coat protein [2]: 50.2 nM
UAAGUUUUGGUAGGAUAUACUUUAAAUUUCUCUAUCCAUACAUGAGGAUCACCCAUGUUUACAUUGUAGAAGGACCACUAUGUU [JR_ExcNG2_Sub056] (Eterna round: R96, puzzle: Exclusion NG 2)			18.7	
CGGCAAAGGAAGGAUAUGCUAGACGAUAGUCUAGCAGAAGGUCCUACAUGAGGAUCACCCAUGUGUCCUAGCCG [Mat - Exclusion 6 - Eli Mod - D9] (Eterna round: R97, puzzle: Exclusion 6)	49.6	44.3		
UCAUGGUAGCAGGAUAUGCUAUUUAUUUUUUAUGCAGAAGGGCUUACAUGAGGAUCACCCAUGUGUUAGGUUUA [JR_E6_Sub072] (puzzle: Exclusion 6)				apparent KD of MS2 coat protein [2]: 81.3 nM
AAGAUGCGGAUAGGAUAUGGAGAGAAAGAAAGACCAGAAGGAUUGGUCAUAUAACAUGAGGAUCACCCAUGUAUAUGUUGUGAA [AK ExNG1-3.2] (Eterna round: R96, puzzle: Exclusion NG 1)			13	
GCGUAGUAUGUAGGAUAUCGGUCAGUUUCUGAUCGAGAAGGACAUGAGGAUCACCCAUGUAAAACGACCGCUUUGUGGUUACGC [JL ENG1 3.58] (Eterna round: R96, puzzle: Exclusion NG 1)	42.7	19.2	15.9	
CGGUGCUUCUGGAAACAUGAGGAUCACCCAUGUUGAGUUAGCGAGGAUAUCGGUAACACUUGUUAUGAGAAGGCGCGAACCAGA [Ex NG3 #35] (Eterna round: R96, puzzle: Exclusion NG 3)	13.6	19.4	14.6	
AGCAGUAGUAUCCGAUCCUACAUGAGGAUCACCCAUGUAGCUAGACGUGCACGCGAUGCUCGUCAGACUACCAGAUG [salish99_TOv1_r3_035] (puzzle: Sensor v3, turn-off variant 1)				apparent KD of MS2 coat protein [1]: 119 nM; apparent KD of MS2 coat protein [2]: 200 nM; apparent KD of MS2 coat protein [3]: 195 nM
GUUGUUUAUGUAGGAUAUGCCUGGCGUGCCUUUGCAGAAGGACAUGAGGAUCACCCAUGUAUUGCGGUCUGCGUUCAGAUCGCC [salish99_ExNG1_r4_041] (Eterna round: R96, puzzle: Exclusion NG 1)	33.1	25.2	19.1	
AAGCCUCAAGUUAGGAUAUUAAUAAGGCAAAUUAUUAAGAAGGGACAUGAGGAUCACCCAUGUAAAAUUCUCAC [Biedredi] (Eterna round: R97, puzzle: Brourd's mod of Exclusion 4)	140	57.5		
CCGCUGCAAGGAUAUACUUGCGGUGGUGCUCGAGAUCUUUUACUUGAGGAUCACCCAAGUAGAAGGUGCAAAAC [jl-ex2.4.53 ViennaUCT mod] (Eterna round: R97, puzzle: Exclusion 2)	26.2	17.9		
UACAUGAGGAUCACCCAUGUUUUGUCGUGUAUGGUAUUUAUCUAGGAUAUCAAUGUAUUUAAUUAUGAGAAGGAGAAUAUUAAU [JMF's solution 45] (Eterna round: R96, puzzle: Exclusion NG 3)	45.4	44.6	29.6	
CCAUACUGUAAGCUUCCCAACAUGAGGAUCACCCAUGUGGACCACGGCUUCGGUCAGCUAACCUGCUCGUCGUUGAU [Eternabot (L2) Solution 31] (Eterna round: R97, puzzle: Sensor, turn-off variant 1)	15.2	16.9		
GGAGGACGAGCAGGAUAUUUUCACAUGAGGAUCACCCAUGUGUACUCAGGGUAAUCCUCCGCCGAAAAGAAGGGUUCGGAAUAA [Mat - Exclusion NG 2 - Mod of JL - D81] (Eterna round: R96, puzzle: Exclusion NG 2)	39.8	74.1	27.8	
AGAUUACGAGGAUAUCGAUUUUAGUACAUGAGGAUCACCCAUGUUAUCCAGGUCUCGUUUCGAGAAGGCGUGAUUC [LRO-Ex5-07] (puzzle: Exclusion 5)				apparent KD of MS2 coat protein [2]: 196 nM
UAUAUGUCAGGAUAUCGAUUGGAACAGAAUUUAACAAUGGUCGAGAAGGGACAUGAGGAUCACCCAUGUUCAAC [JR_Ex4_Sub020] (Eterna round: R97, puzzle: Exclusion 4)	27.3	21.9		
GGAUGCUGAGUAAGGAUAUGGUAGGCUUGCGCCUACCAGAAGGUACAUGAGGAUCACCCAUGUUAGCAUCCAGU [eternacac ex4r4 #3] (Eterna round: R97, puzzle: Brourd's mod of Exclusion 4)	19.6	16.2		
CGUCAAGCUUCGGCAGGCAACAUGAGGAUCACCCAUGUCUGCGUUCGUCUUAACUGAUCUAGGGAUAGAUCGUGUGU [Eternabot (L1) Solution 49] (Eterna round: R97, puzzle: Sensor, turn-off variant 1)	18.3	15.4		
CCGGAAAUACAGGAUAUAGGAGUCAAUAGACUCCUAGAAGGGUAUACAUGAGGAUCACCCAUGUGUCCUACCGG [Fiskers Ex 6 - 66] (puzzle: Exclusion 6)				apparent KD of MS2 coat protein [2]: 25.1 nM
